The target in this test is human TrkB on CHO cells (CHO-K1-hTrkB/pSRE-Luc) (human) (UniProt Q16620). Nature of the test: cell-based or functional assay.

Experimental findings from patent US20190271021A1 are described below.

human TrkB on CHO cells (CHO-K1-hTrkB/pSRE-Luc) (human), sequence (Q16620 32-822): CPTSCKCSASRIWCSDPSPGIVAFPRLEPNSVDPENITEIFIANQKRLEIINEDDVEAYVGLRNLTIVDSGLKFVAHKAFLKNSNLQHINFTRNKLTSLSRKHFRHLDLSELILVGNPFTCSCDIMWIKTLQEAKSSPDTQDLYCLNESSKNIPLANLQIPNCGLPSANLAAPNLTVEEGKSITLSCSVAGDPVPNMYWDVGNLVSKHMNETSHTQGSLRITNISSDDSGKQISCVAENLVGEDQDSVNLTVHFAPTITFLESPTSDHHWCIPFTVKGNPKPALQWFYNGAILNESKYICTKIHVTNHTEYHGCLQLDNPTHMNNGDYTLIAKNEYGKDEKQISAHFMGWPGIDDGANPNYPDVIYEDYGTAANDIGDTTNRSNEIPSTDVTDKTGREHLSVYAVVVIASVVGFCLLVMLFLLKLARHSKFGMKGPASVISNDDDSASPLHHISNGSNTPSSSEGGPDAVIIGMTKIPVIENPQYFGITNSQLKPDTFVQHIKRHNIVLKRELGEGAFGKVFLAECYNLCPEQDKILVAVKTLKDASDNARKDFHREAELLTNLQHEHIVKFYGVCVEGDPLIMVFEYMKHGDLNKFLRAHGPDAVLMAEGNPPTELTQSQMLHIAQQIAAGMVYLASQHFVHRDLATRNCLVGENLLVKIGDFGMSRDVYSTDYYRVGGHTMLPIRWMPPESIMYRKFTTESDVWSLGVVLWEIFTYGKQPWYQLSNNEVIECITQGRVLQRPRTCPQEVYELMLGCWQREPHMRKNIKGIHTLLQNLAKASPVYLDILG

For “complex of pre-pro(IgA)-BDNF(-RGR)_opsin(L)-(G3D)4-G3S_VH<TfR>8D3-CH1-His6, anti-transferrin receptor antibody light chain and not-fused pre-pro(IgA)-BDNF(-RGR)-opsin(L)-T7-His6”, the relative BDNF activity in TrkB luciferase assay, EC50 [%] came to 60%.

Consider “complex of pre-pro(IgA)-BDNF(-RGR)_opsin(L)-(G3D)4-G3S_VH<TfR>8D3-CH1-His6, anti-transferrin receptor antibody light chain and not-fused pre-pro(IgA)-BDNF(-RGR; R81N)-His6 (from UniProt P23560 1-244)”, for which the relative BDNF activity in TrkB luciferase assay, EC50 [%] is 80%.

Regarding “complex of pre-pro(IgA)-BDNF(-RGR; R81N)_opsin(L)-(G3D)4-G3S_VH<TfR>8D3-CH1-His6, anti-transferrin receptor antibody light chain and not-fused pre-pro(IgA)-BDNF(-RGR; R81N)-His6 (from UniProt P23560 1-244)”, the relative BDNF activity in TrkB luciferase assay, EC50 [%] came out at 110%.

In the case of “pre-pro(IgA)-BDNF(-RGR)_opsin(L)-(G3D)4-G3S_VH<TfR>8D3-CH1-His6 with chimeric rat/human anti-transferrin receptor antibody light chain”, the relative BDNF activity in TrkB luciferase assay, EC50 [%] was 200%.

Take “pre-pro-BDNF(-RGR; K25N; T35N; Q79T)-T7-His6 (ligand)”: the BDNF activity in TrkBluciferase assay, EC50 [% or nM] worked out at 2830%.
